This note sets out measurements from patent US20020031761A1, “Binding moieties for human parvovirus B19” (priority 1998, published 2002).

The target in test [1] is VP1-VP2 (purified, recombinant B19 capsid proteins VP1 and VP2) (Human parvovirus B19, UniProt P07299). Nature of the test: ELISA of individual phage isolates for binding to VP1-VP2. The settings on record: phage isolate 10^9 pfu per well; VP1-VP2 2 μl per well on dextrin plates; HRP anti-M13 antibody, TMB. The text has this:
For screening libraries to isolate binding moieties for parvovirus B19, a surrogate target was obtained, consisting of purified, recombinant B19 capsid proteins VP 1 and VP2 (VP1-VP2). Suitable preparations of VP1-VP2 can be made according to methods described in U.S. Pat. No. 5,498,413 or WO 91/12269, incorporated herein by reference. Prior to screening against phage display libraries, partially purified VP1-VP2 was immobilized on dextrin-coated microtiter wells (Recti-Bind™; Pierce Chemical Co.) and tested using standard ELISA techniques, to ensure that under the screening conditions there was a low background level of phage recovered.
From convergent screens of phage display libraries, eluted phage were propagated and 376 phage isolates were selected randomly and individually tested for binding to VP1-VP2 by standard ELISA techniques, using a polyclonal anti-phage antibody to detect bound phage. Briefly, VP1-VP2 (2 μl per well) was coated on dextrin plates, blocked with BSA, and individual phage isolates were added to the wells (50 μl, 10^9 pfu per well). After washing, bound phage were incubated with the detection anti-phage antibodies (100 μl per well HRP-conjugated anti-M13 antibody in PBS-Tween (Pharmacia Inc.)). […] The bound antibody was detected by adding 100 μl per well of two-component TMB (tetramethylbenzidine; Kirkegaard & Perry). […]
A general note: In an ELISA, binding on a coated surface is turned into a signal by an enzyme label.

The target of a further test is VP1-VP2 (Human parvovirus B19, UniProt P07299). Briefly: Relative binding ELISA, constant phage against decreasing amounts of VP1-VP2. Conditions: signal interpolated at VP1-VP2 1:10 dilution; binding data normalized as percent of OD 630 nm. On the procedure: Based on the ELISA data and the sequence similarities within each library, the 18 isolates (Tables 1-3) were selected and evaluated further with respect to their binding characteristics to VP1-VP2. Relative binding of each isolate was studied by ELISA. Each selected phage isolate, held at a constant amount, was contacted with decreasing amounts per well of VP1-VP2, the amounts coating each dextrin well varying from 2 μl down to 0.001 μl. Bound phage were detected as described before using polyclonal anti-phage antibody. […] Using VP1-VP2 at 1:10 dilution as an arbitrary point, a value for the signal was interpolated, and the relative binding strengths are reflected in Tables 1-3, above.

No end group written: not given here.

On to “A F C W L W P G N C L H (AFCWLWPGNCLH; not fully specified; cysteine pairing not given here) [C01]”, for which the ELISA signal in test [1] is 1.5. In the test with VP1-VP2, this sequence yielded a relative binding of 44.
